Data on one molecule can be found in article PMC3574147, “Association of RNAs with Bacillus subtilis Hfq”.

This data set addresses T1, Hfq (Bacillus subtilis, UniProt O31796 1-73).
T1 sequence: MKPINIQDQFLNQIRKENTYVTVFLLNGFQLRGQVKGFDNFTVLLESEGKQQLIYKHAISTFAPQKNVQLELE
Briefly: EMSA; 10 mM Mg2+, 2.5 ng/ul yeast tRNA; 50 mM Hepes pH 7.5, 150 mM NaCl, 10 mM MgCl2, 2.5 ng/ul yeast tRNA, ~2 fmol RNA in 10 ul, 30 min at 25 C; 5% native TBE PAGE. The conditions noted are these: protein: recombinant; tags: His6 (pHisII vector); chain copies: 6; label: 32P (gamma-32P ATP). Background: Mobility shift assays separate free from complexed probe on a gel.

B1: SR4 antitoxin RNA (structured_RNA)
RNA: GGGUAAUGAUACAAUUAUAUAAUUAUUUUUUGCAUUUUGUUUAAUUAAAUGCAAAGCUGCCCAUCAAAGGGCUUGCUCGUUGUCAAAUCUUAAAAUAAAAAGACCAGGGUGUUGGUAGCACCCUGGCUCUGUACAAGCGUAGGCCUAACCCUUCAGGUGUCCAAACUCAAGGGAAGGUCUAUUUUUU
B1: the binding result is “binds”.
